# Assay results reported in FireProtDB (doi:10.1111/febs.12694).
# Several values for one entry are separate records, joined by “and”; a condition that tells them apart may be missing. Identical values can stand only once.
# B1: Bacteriorhodopsin, P02945 (parent)
# chain: MLELLPTAVEGVSQAQITGRPEWIWLALGTALMGLGTLYFLVKGMGVSDPDAKKFYAITTLVPAIAFTMYLSMLLGYGLTMVPFGGEQNPIYWARYADWLFTTPLLLLDLALLVDADQGTILALVGADGIMIGTGLVGALTKVYSYRFVWWAISTAAMLYILYVLFFGFTSKAESMRPEVASTFKVLRNVTVVLWSAYPVVWLIGSEGAGIVPLNIETLLFMVLDVSAKVGFGLILLRSRAIFGEAEAPEPSAGDGAAATSD
# Variants of: B1
# Details: Halobacterium salinarum (strain ATCC 700922 / JCM 11081 / NRC-1); pH 3.5; Thermal; DSC; structure 1C3W; whole UniProt chain shown
Variant,Tm [°C],"change of melting temperature, mutant - wild type (higher = more stable) [°C]"
E22Q E207Q E217Q,69.4,-7.2

# Same assay, conditions: Halobacterium salinarum (strain ATCC 700922 / JCM 11081 / NRC-1); pH 4; Thermal; UV spectroscopy; transition: 2; structure 1C3W; whole UniProt chain shown
Variant,Tm,"change of melting temperature, mutant - wild type (higher = more stable) [°C]"
E22Q E207Q E217Q,60.1 °C and 64.1 °C,-5.1

# Same assay, conditions: Halobacterium salinarum (strain ATCC 700922 / JCM 11081 / NRC-1); pH 7; Thermal; DSC; structure 1C3W; whole UniProt chain shown
Variant,Tm [°C],"change of melting temperature, mutant - wild type (higher = more stable) [°C]"
E22Q E207Q E217Q,93.3,-4.9

# Same assay, conditions: Halobacterium salinarum (strain ATCC 700922 / JCM 11081 / NRC-1); pH 7; Thermal; UV spectroscopy; transition: 2; structure 1C3W; whole UniProt chain shown
row,Variant,"change of melting temperature, mutant - wild type (higher = more stable) [°C]"
1,E22Q E207Q E217Q,-0.4

# Same assay, conditions: Halobacterium salinarum (strain ATCC 700922 / JCM 11081 / NRC-1); pH 9; Thermal; DSC; structure 1C3W; whole UniProt chain shown
Variant,Tm [°C],"change of melting temperature, mutant - wild type (higher = more stable) [°C]"
E22Q E207Q E217Q,82.6,-11.9

# Same assay, conditions: Halobacterium salinarum (strain ATCC 700922 / JCM 11081 / NRC-1); pH 9.5; Thermal; UV spectroscopy; glycine buffer; transition: 2; structure 1C3W; whole UniProt chain shown
row,Variant,"change of melting temperature, mutant - wild type (higher = more stable) [°C]"
1,E22Q E207Q E217Q,0
